Like-named read-outs stand apart in the source and are kept apart here.
Experiments:
recombinant human IL-6 [1] = molecular target: T1, recombinant human IL-6 (human, UniProt P05231 30-212, labeled with radioactive iodine); test: radioiodinated IL-6 on peptide array
T1 construct: Labeled probe in solution, added to wells that carry the synthetic peptides; also called IL-6 ligand; Interleukin-6

recombinant human IL-6 [2] = molecular target: T1, recombinant human IL-6; test: radioiodinated IL-6 on peptide array; remark: listed apart in the source
Description: Synthetic peptide arrays were constructed in 96-well microtiter plates in accordance with the method set forth in WO 91/02714 (Saxinger), and used to test the binding of recombinant human IL-6 that had been labeled with radioactive iodine (radiolabeling by standard methods). After incubating the radiolabeled IL-6 ligand in a well with each synthetic peptide, a washing step was performed to remove unbound label, and the relative level of radioactivity remaining in each well of the plate was evaluated to determine the relative affinity of each peptide for IL-6 ligand.

Row | Binder | Counts/minute bound (recombinant human IL-6 [1]) [counts/minute] | Counts/minute bound (recombinant human IL-6 [2]) [counts/minute]
1 | SLTSDTLYMVRMAAYTDEGGKDGP [Peptide E59] | 1270 | –
2 | SLTTKAVLLVRKFQNS [Peptide B22] | – | 12600
